Assay results: patent US20030100501A1, “Q4N2NEG2 enhances CFTR activity” (Case Western Reserve University, priority 2001, published 2003)
Square brackets hold non-standard residues; d marks the D form. Ends that are not written are not given here. Nle = CCCC[C@H](N)C(=O)O

Assays:
[1] = target: T1, wt-CFTR channel (Homo sapiens, UniProt P13569); test: Single channel recording of CFTR channels reconstituted in planar lipid bilayer, peptide added to cis (intracellular) side; assay type: biochemical
T1 construct: expressed in transfected cells; host or cells: 293-EBNA HEK cells (Invitrogen) transfected with pCEP4(wt); microsomal membrane vesicles
T1 sequence (P13569 whole entry): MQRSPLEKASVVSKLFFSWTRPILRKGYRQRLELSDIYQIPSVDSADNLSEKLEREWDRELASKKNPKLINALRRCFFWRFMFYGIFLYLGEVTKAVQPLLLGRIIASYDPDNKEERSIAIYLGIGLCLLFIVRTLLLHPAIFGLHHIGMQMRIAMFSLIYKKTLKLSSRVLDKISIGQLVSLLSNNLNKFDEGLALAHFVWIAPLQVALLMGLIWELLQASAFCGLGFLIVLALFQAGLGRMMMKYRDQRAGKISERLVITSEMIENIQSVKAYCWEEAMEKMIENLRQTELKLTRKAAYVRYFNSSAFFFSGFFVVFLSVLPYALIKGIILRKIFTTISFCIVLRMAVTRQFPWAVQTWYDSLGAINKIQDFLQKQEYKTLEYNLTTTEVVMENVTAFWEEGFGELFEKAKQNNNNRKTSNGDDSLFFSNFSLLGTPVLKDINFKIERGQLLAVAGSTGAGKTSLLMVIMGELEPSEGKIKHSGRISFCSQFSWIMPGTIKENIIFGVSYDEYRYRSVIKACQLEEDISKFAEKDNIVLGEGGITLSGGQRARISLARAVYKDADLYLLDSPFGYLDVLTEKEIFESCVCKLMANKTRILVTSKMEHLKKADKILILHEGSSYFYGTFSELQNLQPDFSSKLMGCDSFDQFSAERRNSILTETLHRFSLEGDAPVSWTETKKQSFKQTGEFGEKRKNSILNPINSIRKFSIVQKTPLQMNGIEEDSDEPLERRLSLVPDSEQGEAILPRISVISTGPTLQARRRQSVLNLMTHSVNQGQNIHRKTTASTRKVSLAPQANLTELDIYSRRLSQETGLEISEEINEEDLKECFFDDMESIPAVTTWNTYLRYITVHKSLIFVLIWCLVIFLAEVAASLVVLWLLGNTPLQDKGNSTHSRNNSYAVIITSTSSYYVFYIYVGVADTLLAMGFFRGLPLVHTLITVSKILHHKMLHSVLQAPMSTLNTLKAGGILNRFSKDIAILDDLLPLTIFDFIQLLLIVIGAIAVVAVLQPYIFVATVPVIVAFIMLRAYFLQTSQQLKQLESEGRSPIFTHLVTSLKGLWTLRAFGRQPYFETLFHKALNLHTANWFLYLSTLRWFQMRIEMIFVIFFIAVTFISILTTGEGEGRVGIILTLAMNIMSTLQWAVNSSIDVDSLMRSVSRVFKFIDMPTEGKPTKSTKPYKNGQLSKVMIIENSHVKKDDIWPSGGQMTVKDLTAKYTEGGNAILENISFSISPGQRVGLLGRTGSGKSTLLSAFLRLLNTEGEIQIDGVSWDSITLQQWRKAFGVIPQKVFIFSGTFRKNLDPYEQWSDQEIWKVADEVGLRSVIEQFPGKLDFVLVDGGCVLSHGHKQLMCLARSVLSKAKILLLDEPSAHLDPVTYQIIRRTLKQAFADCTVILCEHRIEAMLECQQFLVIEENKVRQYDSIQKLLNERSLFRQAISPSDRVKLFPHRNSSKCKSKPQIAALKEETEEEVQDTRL
From the text: The activating peptide of Q4N2NEG2 was created by substituting glutamine residues for glutamic acid residues at four sites and asparagines for aspartic acid residues at two sites of the authentic NEG2 peptide sequence […] (SEQ ID NO: 7). In addition, a serine residue was substituted for cysteine, to prevent peptide dimerization, and norleucine was substituted for methionine, to prevent oxidation. These changes create a peptide with reduced chemical reactivity and high predicted helical structure, confirmed by circular dichroism, as well as reduced net negative charge (from −9 to −3). […] At concentrations of 4-6 μM Po of CFTR doubles.
To test whether the Q4N2NEG2 polypeptide is responsible for increasing the open probability of the CFTR channel, synthetic Q4N2NEG2, a 22 amino acid peptide, was added to the cis-intracellular side of single CFTR channels captured in the planar lipid bilayer (FIG. 1). […] During stimulation, the open probability doubles and more transitions are observed between the open and closed states (FIG. 1B). The open probability observed in 5 experiments at 4 μM concentration Q4N2NEG2 is shown to be increased by about two-fold in the graph (FIG. 1C).
The wt CFTR cDNA was subcloned into an Epstein-Barr virus-based episomal eukaryotic expression vector, pCEP4 (Invitrogen, San Diego, Calif.), between the Nhe1 and Xho1 restriction sites.
A human embryonic kidney cell line (293-EBNA HEK; Invitrogen) was used for transfection and expression of the CFTR proteins (Ma et al., 1997, Ma et al., 1996, Xie et al., 1995). The HEK-293 cell line contains a pCMV-EBNA vector, which constitutively expresses the Epstein-Barr virus nuclear antigen-1 (EBNA-1) gene product and increases the transfection efficiency of Epstein-Barr virus-based vectors. The cells were maintained in Dulbecco's Modified Eagle Medium with 10% FBS and 1% L-glutamine. Geneticin (G418, 250 (g/ml) was added to the cell culture medium to maintain selection of the cells containing the pCMV-EBNA vector. Lipofectamine reagent (Life Technologies, Inc) in Optimem media (serum-free) was used to transfect the HEK-293 cells with pCEP4(wt). After 5 hours, serum was added to the media (10% final serum concentration). Twenty-four hours after transfection, the transfection media was replaced with fresh media. The cells were harvested two days after transfection and microsomal membrane vesicles were prepared for single channel measurements in the lipid bilayer reconstitution system.
HEK-293 cells transfected with pCEP4(CFTR) were harvested and homogenized using a combination of hypotonic lysis and Dounce homogenization in the presence of protease inhibitors (Ma et al., 1997, Ma et al., 1996, Xie et al., 1995). […]
Lipid bilayer membranes were formed across an aperture of ˜200 (m diameter with a mixture of phosphatidylethanolamine:phosphatidylserine:cholesterol in a ratio of 5:5:1. The lipids were dissolved in decane at a concentration of 33 mg/ml. The recording solutions contained: cis (intracellular), 200 mM CsCl, 1 mM MgCl2, 2 mM ATP, and 10 mM HEPES-Tris (pH 7.4); trans (extracellular), 50 mM CsCl, 10 mM HEPES-Tris (pH 7.4). Vesicles (1-4 (1) containing wild-type CFTR were added to the cis solution. The PKA catalytic subunit was present at a concentration of 50 units/ml in the cis solution unless noted otherwise. Single channel currents were recorded with an Axopatch 200A patch clamp unit (Axon Instruments). […]

[2] = target: T2, mutant G551D CFTR (Homo sapiens, UniProt P13569, G551D); test: Planar lipid bilayer open probability of mutant CFTR; assay type: biochemical
T2 construct: expressed in transfected cells; host or cells: 293-EBNA HEK cells (inferred: the methods describe this line for 'the CFTR proteins')
T2 sequence (P13569 whole entry G551D): as the sequence (P13569 whole entry) above, with G551D counted along it
From the text: The Q4 N2 NEG2 peptide sequence has been tested on one mutant form of CFTR, G551D, which reaches the plasma membrane. In the planar lipid bilayer, Q4N2NEG2 increased the open probability of G551 by about threefold. Thus, this peptide is useful to stimulate channel activity in mutant forms of CFTR that reach the plasma membrane.
Lipid bilayer membranes were formed across an aperture of ˜200 (m diameter with a mixture of phosphatidylethanolamine:phosphatidylserine:cholesterol in a ratio of 5:5:1. The lipids were dissolved in decane at a concentration of 33 mg/ml. The recording solutions contained: cis (intracellular), 200 mM CsCl, 1 mM MgCl2, 2 mM ATP, and 10 mM HEPES-Tris (pH 7.4); trans (extracellular), 50 mM CsCl, 10 mM HEPES-Tris (pH 7.4). Vesicles (1-4 (1) containing wild-type CFTR were added to the cis solution. The PKA catalytic subunit was present at a concentration of 50 units/ml in the cis solution unless noted otherwise. Single channel currents were recorded with an Axopatch 200A patch clamp unit (Axon Instruments). The currents were sampled at 1-2.5 ms/point. Single channel data analyses were performed with pClamp and TIPS softwares.

## GLEISEQINQQNLKQSFFNDLE (Ac-GLEISEQINQQNLKQSFFND[Nle]E; not fully specified (C-terminus)) [Q4N2NEG2, synthetic 22 amino acid peptide derived from NEG2 with four Glu to Gln, two Asp to Asn, Cys to Ser, Met to norleucine substitutions]
[1]; 4 μM peptide, summary of 5 experiments (FIG. 1C)
  increase in open probability (Po) of CFTR channel: about two-fold
[1]; any experiment at any concentration of peptide
  inhibitory activity on CFTR channel: No inhibitory activity
[1]; concentration ranging 0.5 to 14 μM, cis side
  stimulation of channel activity: marked dose-related stimulation
[1]; peptide concentrations of 4-6 μM, cis side
  Po of CFTR: doubles
[1]; single channel trace, FIG. 1A/1B, 4 μM
  open probability during stimulation, single wt-CFTR channel: doubles
[2]
  increase in open probability of G551D CFTR: about threefold
